Reference: PMC6733591

T1: ScRNase PNK (Las1-Grc3 complex) (Saccharomyces cerevisiae, UniProt P36146;Q07845 1-502;1-632)
T1 sequence 1: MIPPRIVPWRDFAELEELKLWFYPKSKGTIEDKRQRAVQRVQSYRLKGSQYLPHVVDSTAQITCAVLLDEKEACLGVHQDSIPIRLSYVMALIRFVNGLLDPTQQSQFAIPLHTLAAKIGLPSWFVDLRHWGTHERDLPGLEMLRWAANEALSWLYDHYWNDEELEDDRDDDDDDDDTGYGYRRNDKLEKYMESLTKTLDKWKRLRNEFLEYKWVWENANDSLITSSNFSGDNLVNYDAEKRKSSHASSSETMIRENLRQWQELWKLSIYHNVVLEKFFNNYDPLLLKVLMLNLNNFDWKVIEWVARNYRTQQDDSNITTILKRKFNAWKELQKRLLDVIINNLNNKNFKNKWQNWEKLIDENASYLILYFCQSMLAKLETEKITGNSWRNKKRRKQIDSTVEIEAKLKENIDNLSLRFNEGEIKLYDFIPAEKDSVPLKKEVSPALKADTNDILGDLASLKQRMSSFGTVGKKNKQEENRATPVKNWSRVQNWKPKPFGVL
T1 sequence 2: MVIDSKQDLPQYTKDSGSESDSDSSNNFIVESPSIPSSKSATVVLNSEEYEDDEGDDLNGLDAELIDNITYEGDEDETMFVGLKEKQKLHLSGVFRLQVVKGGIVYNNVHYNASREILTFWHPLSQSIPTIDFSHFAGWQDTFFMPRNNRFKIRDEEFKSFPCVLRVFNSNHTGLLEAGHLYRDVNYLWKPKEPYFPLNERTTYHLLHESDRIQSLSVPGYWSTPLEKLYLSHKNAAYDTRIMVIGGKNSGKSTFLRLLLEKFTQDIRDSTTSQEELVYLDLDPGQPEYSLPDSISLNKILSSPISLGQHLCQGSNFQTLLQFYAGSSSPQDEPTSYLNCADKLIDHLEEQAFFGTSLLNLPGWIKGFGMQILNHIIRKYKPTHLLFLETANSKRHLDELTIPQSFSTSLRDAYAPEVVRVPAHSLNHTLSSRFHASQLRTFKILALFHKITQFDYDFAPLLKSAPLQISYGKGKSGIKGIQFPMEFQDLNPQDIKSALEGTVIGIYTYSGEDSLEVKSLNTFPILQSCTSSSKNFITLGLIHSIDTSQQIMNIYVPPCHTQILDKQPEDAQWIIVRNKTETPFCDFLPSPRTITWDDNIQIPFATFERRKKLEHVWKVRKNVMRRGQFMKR


Columns and labels:
[1] = biological target: Chaetomium thermophilum Las1 endoribonuclease (nuclease component of RNase PNK) (Chaetomium thermophilum); experiment: cryo-EM structure
[2] = biological target: T1, ScRNase PNK (Las1-Grc3 complex); experiment: ITC

stoichiometry N [1]	Molecule	binding result [2]
2	Chaetomium thermophilum Las1 endoribonuclease (nuclease component of RNase PNK) (enzyme)	
	ACGUACGCGGAAUACUUCGAA (ssRNA) [SS-RNA]	binds
	SC-ITS2-cleaved-RNA (SC-ITS2-3-RNA annealed to SC-ITS2-5-RNA) (dsRNA) RNA 1: GUCGUUUUA RNA 2: GGUUUUACCAACUGCGGC	binds
